According to patent EP1418184A1:

Biological target: IL-12 receptor on activated peripheral blood lymphocytes (human) (UniProt P42701)
Experiment: cell-based or functional assay

- IFN-gamma secretion of preactivated T cells (ELISA, 48 h), activity against natural IL-12 at equimolar amounts (times lower than IL-12): 5 to 10
Substance: HRS3-scFv-hi-IL-12 fusion protein
